Results on one molecule are retold here after patent US20190085028A1.

In the assay the target is NMDA receptor on rat hippocampal neurons (E18 Sprague Dawley primary culture) (rat), P35439. Description: cell-based or functional assay.

In turn, GEDDYQDAQDLIRDKSN [Peptide SEQ ID NO: 3 (…)] registered an IC50 of inhibition of NMDA receptor-evoked current (dose-response curve, FIG. 3H) of 156 µM; an inhibition of NMDA receptor-evoked current (whole-cell patch clamp), 10 µM peptide of 14%; an inhibition of NMDA receptor-evoked current (whole-cell patch clamp), 100 µM peptide of 40%; an inhibition of NMDA receptor-evoked current (whole-cell patch clamp), 500 µM peptide of 66.5%.
